Data on 1 substance can be found in PMC12162218.

The target of the experiment is Cat1-His6 (CRISPR-associated TIR protein 1, homolog MCI0612855.1). The experiment in a line: SEC-MALS; Cat1-His6 with NAD+ (1:10 molar ratio), no cA4; Superose 6 10/300 increase; 25 mM MES pH 6, 200 mM NaCl, 2 mM β-mercaptoethanol, 5 % glycerol. (In general: In gel filtration, larger molecules generally elute earlier.)

Take “Cat1-His6 (CRISPR-associated TIR protein 1, homolog MCI0612855.1) (enzyme)”: the stoichiometry N amounted to 2.

Broadly, the stoichiometry N is the number of molecules, sites or subunits per partner or assembly.
